The target in experiment [1] is T1, Biotinylated human integrin αvβ6 (ACROBiosystems, product number IT6-H82E4) (human, UniProt P06756 31-992; P18564 22-707, biotinylated (Avi tag at the C-terminus) ; Biotin on the Avi tag at the C-terminus of the αv chain; the tag is not in the letters.).
T1 construct: Bought heterodimer; also called biotinylated integrin αvβ6; not shown: basic tail on the β6 chain
The experiment is described as follows: BLI (Octet RED96), biotinylated integrin αvβ6 on biosensor, antibody in solution. Here is the method: Next, the binding affinity of the obtained anti-integrin αvβ6 monoclonal antibodies derived from UC or PSC patients was determined. The KD value was measured by biolayer interferometry using Octet RED96 (Sartorius). A 100 nM solution of the antibody, and serially diluted solutions of biotinylated integrin αvβ6 protein in the range of 200 to 6.25 nM were prepared using a buffer containing 20 mM Tris, 150 mM NaCl, 1 mM CaCl₂, 1 mM MgCl₂, 0.1% human serum albumin (014-27604; Fujifilm Wako Pure Chemical Industries, Ltd.) and 0.02% Tween 20 (1610781; Bio-Rad), and added to a 96-well plate (Greiner; 655209) at 200 μL/well. The biotinylated integrin αvβ6 was allowed to bind for 5 minutes to a biosensor (18-5136; Sartorius) soaked in the buffer. After washing of the biosensor, the biosensor was immersed in each antibody solution for 5 minutes (binding reaction). Then, the sensor was immersed in the buffer solution for 1 minute (dissociation reaction). The binding dissociation constant (KD value) between “integrin αvβ6-each monoclonal antibody” was determined using the analysis software (Octet BLI Analysis) attached to the device.
A general note: Biolayer interferometry detects binding as a change in optical thickness at a sensor tip.

For experiment [2], the target named is T2, human integrin αvβ6 (ACROBiosystems, product number IT6-H52E1) (human, UniProt P06756 31-992; P18564 22-707).
T2 construct: also called histidine-tagged integrin αvβ6; histidine-tagged extracellular domain protein of integrin αvβ6; not shown: linker and basic tail on the β6 chain
T2 sequence (P06756 31-992 limits assumed, chain 1 of 2): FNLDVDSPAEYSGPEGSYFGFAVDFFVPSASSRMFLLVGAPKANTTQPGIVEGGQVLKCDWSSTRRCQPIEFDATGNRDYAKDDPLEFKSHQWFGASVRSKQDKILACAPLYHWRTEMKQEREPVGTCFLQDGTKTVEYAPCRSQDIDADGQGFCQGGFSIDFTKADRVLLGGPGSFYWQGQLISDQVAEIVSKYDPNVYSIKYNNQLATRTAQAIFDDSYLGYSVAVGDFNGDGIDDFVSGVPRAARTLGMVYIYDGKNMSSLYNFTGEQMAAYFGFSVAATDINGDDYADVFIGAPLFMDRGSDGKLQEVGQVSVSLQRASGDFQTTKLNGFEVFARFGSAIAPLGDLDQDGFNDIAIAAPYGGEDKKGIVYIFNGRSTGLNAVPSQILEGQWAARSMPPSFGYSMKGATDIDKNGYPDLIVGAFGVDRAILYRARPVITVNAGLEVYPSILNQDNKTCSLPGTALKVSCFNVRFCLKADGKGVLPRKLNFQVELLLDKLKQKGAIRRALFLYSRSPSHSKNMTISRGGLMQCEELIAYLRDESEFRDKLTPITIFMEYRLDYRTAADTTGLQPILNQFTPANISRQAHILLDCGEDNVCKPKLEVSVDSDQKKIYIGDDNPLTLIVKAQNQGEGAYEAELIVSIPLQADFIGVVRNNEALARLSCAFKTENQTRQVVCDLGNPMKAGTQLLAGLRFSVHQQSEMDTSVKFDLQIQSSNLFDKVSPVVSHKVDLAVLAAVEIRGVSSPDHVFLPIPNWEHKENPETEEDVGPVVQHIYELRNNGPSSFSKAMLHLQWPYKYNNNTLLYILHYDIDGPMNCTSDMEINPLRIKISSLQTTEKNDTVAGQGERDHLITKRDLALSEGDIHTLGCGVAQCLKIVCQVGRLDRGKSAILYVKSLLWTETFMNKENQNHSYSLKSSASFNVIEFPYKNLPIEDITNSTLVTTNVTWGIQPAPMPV
T2 sequence (P18564 22-707 limits assumed, chain 2 of 2): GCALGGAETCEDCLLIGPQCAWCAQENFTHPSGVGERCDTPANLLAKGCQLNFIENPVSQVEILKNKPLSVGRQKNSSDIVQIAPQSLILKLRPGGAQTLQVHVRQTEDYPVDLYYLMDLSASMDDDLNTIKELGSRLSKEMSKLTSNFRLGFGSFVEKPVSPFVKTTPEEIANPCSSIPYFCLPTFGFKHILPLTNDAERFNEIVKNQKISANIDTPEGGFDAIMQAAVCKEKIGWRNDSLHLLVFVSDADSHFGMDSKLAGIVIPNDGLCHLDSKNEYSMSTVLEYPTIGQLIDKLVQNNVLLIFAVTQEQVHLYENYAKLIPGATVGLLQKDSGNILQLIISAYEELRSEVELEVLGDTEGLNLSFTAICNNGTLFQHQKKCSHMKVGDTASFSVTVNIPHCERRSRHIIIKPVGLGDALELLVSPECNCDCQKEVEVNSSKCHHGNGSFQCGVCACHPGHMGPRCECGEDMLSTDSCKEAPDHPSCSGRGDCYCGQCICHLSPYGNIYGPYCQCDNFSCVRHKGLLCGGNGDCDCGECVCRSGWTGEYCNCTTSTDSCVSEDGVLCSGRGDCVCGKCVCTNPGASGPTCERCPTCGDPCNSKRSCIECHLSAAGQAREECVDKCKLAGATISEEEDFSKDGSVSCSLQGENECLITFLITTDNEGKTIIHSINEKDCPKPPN
The experiment is described as follows: blocking ELISA: integrin αvβ6 coated, antibody added, then fibronectin 2 µg/mL; bound fibronectin detected, inhibition effect (%). How it is done: Furthermore, a competitive assay with fibronectin for binding to integrin αvβ6 was performed to confirm the function of the obtained monoclonal antibodies. Briefly, a 96-well microtiter plate was coated with 150 μL/well of 2 μg/mL human integrin αvβ6 (ACROBiosystems, Cat. No. IT6-H52E1) overnight at 4° C., then blocked and incubated with 120 μL of monoclonal antibodies (0.0001-10 μg/mL) for 60 min at room temperature. After washing, the plate was incubated with 100 μL of 2 μg/mL fibronectin (FC010; MilliporeSigma, Burlington, MA) for 60 minutes at room temperature. After washing, an anti-fibronectin antibody (1:5000 dilution; ab2413; Abcam) was added to the plate, and the plate was incubated for 60 min at room temperature. […] After washing, the plate was incubated with 3,3′,5,5′-tetramethylbenzidine for 10 minutes, and the absorbance at 450 nm was measured to detect fibronectin bound to integrin αvβ6 on the solid phase. […] To calculate the binding inhibition rate, blank wells coated with integrin αvβ6 were incubated with fibronectin in the absence of antibody, and the optical density (OD) at 450 nm was measured in the same manner as above. The binding inhibition rate (%) was calculated according to the following formula. […]
A general note: ELISA stands for enzyme-linked immunosorbent assay.

Experiment [3] has as its target Integrin αvβ1 (ACRO Biosystems, IT1-H82W6) (UniProt P06756 31-992; P05556 21-728). Kind of experiment: adsorption test: UC antibody 1 150 ng, His-tagged integrin 5 or 25 µg/mL and anti-His-tag magnetic agarose; remaining antibody measured by ELISA, adsorption rate. How it is done: (§1) The concentration of anti-integrin αvβ6 antibodies contained in the recovered solution was measured by ELISA. A microtiter plate was coated with 100 μL/well of 2 μg/mL integrin αvβ6 overnight at 4° C., followed by washing and blocking. After washing, the recovered reaction solution was diluted 10-fold and added at 100 µL/well to the plate, and the plate was incubated at room temperature for 60 minutes. After washing, an HRP-labeled anti-human IgG antibody (50,000-fold dilution; ab6759; Abcam) was added at 100 μL/well to the plate, and the plate was incubated at room temperature for 60 minutes. After washing, the plate was incubated with 3,3′,5,5′-tetramethylbenzidine for 7 minutes, and the absorbance density (OD value) at 450 nm was measured to detect human IgG bound to integrin αvβ6 on the solid phase.
(§2) Anti-histidine tag antibody-labeled magnetic agarose (MBL, D291-10) in the amount of 10 μL (5 μg of anti-his tag antibody), 150 ng of the monoclonal autoantibody derived from an ulcerative colitis patient prepared in Example 2 (UC antibody 1 shown in Table 1), and 5 μg/mL or 25 μg/mL of any of integrins as mentioned below were mixed and reacted by inversion mixing in a total of 500 μL of solution at 4° C. for 12 hours. The solution after the reaction was recovered. As a control, a mixture to which no integrin was added (a mixture of the above-mentioned agarose and autoantibody only) was used to perform the similar reaction. [0157] Integrin αvβ1 (ACRO Biosystems, IT1-H82W6) [0158] Integrin αvβ3 (ACRO Biosystems, IT3-H52E3) [0159] Integrin αvβ5 (ACRO Biosystems, IT5-H52W5) [0160] Integrin αvβ6 (ACRO Biosystems, IT6-H52E1) [0161] Integrin αvβ8 (ACRO Biosystems, IT8-H52W4)
(§3) In the same manner as described in Example 7, the concentration of anti-integrin αvβ6 antibody contained in the recovered solution was determined, and the adsorption rate of anti-integrin αvβ6 antibody in the antibody adsorption reaction was calculated.

The target in experiment [4] is Integrin αvβ3 (ACRO Biosystems, IT3-H52E3) (UniProt P06756 31-992; P05106 27-718). Described as above. How it is done: as §1, §2, §3
Sequence of Integrin αvβ3 (ACRO Biosystems, IT3-H52E3) (P06756 31-992, chain 1 of 2): as the sequence (P06756 31-992 limits assumed, chain 1 of 2) above
Sequence of Integrin αvβ3 (ACRO Biosystems, IT3-H52E3) (P05106 27-718, chain 2 of 2): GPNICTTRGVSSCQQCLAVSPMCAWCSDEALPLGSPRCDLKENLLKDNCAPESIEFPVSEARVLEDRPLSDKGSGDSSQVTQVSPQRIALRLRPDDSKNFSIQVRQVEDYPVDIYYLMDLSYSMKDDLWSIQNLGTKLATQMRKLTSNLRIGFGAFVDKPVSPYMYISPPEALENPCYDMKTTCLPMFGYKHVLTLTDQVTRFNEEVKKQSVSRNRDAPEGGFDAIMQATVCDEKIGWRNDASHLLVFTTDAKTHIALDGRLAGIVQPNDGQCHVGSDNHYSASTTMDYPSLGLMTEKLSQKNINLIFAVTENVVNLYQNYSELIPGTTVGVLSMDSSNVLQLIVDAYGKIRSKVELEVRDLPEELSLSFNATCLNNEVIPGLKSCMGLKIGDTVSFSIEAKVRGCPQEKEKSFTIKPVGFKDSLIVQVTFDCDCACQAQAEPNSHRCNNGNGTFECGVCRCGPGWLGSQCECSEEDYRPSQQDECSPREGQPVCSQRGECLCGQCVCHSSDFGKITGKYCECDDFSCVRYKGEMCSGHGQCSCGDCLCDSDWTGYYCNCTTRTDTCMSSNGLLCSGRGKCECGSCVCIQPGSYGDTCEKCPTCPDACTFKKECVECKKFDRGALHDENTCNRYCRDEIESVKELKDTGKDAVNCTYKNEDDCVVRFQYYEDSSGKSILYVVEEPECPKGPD
For experiment [5], the target named is Integrin αvβ5 (ACRO Biosystems, IT5-H52W5) (UniProt P06756 31-992; P18084 24-719). The experiment is described as above. How it is done:
as §1, §2, §3

Experiment [6] deals with Integrin αvβ8 (ACRO Biosystems, IT8-H52W4) (UniProt P06756 31-992; P26012 43-684). Described as above. Here is the method: as §1, §2, §3
Sequence of Integrin αvβ8 (ACRO Biosystems, IT8-H52W4) (P06756 31-992, chain 1 of 2): as the sequence (P06756 31-992 limits assumed, chain 1 of 2) above
Sequence of Integrin αvβ8 (ACRO Biosystems, IT8-H52W4) (P26012 43-684, chain 2 of 2): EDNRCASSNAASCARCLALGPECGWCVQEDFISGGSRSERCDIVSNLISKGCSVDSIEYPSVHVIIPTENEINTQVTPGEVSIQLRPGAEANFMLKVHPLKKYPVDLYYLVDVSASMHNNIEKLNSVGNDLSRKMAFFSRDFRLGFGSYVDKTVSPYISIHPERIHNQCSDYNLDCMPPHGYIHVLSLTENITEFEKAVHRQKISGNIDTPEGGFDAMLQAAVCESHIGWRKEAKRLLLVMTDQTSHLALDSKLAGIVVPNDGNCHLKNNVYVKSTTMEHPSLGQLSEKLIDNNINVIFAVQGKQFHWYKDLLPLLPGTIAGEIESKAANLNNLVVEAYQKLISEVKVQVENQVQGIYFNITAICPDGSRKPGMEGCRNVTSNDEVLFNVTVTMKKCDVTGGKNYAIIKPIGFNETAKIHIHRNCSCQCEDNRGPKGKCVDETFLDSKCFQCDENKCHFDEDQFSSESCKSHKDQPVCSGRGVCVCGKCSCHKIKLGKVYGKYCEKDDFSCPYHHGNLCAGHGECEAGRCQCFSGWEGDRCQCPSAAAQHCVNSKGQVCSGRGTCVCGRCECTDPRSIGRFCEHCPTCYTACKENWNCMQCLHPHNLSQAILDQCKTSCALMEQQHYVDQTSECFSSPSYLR

Sequence of Integrin αvβ5 (ACRO Biosystems, IT5-H52W5) (P06756 31-992, chain 1 of 2): as the sequence (P06756 31-992 limits assumed, chain 1 of 2) above
Sequence of Integrin αvβ5 (ACRO Biosystems, IT5-H52W5) (P18084 24-719, chain 2 of 2): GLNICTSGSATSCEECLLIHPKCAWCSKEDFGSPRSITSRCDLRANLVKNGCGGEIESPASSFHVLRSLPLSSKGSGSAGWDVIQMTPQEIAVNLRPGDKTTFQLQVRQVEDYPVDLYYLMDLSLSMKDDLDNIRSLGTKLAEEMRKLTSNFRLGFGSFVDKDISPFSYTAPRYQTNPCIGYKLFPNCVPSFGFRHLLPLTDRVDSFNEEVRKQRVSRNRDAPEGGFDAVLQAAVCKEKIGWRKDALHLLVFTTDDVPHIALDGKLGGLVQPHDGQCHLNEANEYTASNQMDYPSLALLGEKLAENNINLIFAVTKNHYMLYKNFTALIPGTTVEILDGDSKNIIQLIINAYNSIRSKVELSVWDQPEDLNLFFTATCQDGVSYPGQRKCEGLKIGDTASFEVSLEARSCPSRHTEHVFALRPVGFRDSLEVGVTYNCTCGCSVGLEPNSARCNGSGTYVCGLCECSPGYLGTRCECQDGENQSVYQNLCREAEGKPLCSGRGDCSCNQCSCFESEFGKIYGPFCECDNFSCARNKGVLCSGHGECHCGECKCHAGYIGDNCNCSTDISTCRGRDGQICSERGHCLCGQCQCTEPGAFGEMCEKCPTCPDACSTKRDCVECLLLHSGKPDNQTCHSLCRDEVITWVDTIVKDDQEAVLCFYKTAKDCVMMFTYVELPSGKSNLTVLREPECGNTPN
T1 sequence (P06756 31-992 limits assumed, chain 1 of 2): as the sequence (P06756 31-992 limits assumed, chain 1 of 2) above
T1 sequence (P18564 22-707 limits assumed, chain 2 of 2): as the sequence (P18564 22-707 limits assumed, chain 2 of 2) above
Sequence of Integrin αvβ1 (ACRO Biosystems, IT1-H82W6) (P06756 31-992, chain 1 of 2): as the sequence (P06756 31-992 limits assumed, chain 1 of 2) above
Sequence of Integrin αvβ1 (ACRO Biosystems, IT1-H82W6) (P05556 21-728, chain 2 of 2): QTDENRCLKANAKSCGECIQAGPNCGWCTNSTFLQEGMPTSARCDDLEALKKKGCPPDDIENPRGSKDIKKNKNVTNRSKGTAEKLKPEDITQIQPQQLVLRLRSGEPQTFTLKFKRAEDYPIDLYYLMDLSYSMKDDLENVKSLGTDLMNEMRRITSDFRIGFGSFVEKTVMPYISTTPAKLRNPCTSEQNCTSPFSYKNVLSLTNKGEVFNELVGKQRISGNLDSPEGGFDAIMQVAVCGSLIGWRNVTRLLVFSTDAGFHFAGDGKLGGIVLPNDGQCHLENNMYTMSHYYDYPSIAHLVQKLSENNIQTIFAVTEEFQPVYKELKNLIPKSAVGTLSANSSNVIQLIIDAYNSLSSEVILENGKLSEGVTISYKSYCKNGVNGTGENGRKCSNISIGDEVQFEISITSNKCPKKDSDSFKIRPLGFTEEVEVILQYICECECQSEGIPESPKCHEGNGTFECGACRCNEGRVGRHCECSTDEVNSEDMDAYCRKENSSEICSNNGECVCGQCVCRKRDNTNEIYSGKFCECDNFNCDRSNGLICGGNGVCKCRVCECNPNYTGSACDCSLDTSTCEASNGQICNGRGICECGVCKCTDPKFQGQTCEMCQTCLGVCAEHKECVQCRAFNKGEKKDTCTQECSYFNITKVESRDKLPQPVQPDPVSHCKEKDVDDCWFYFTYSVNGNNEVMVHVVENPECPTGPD

B1: UC antibody 1 (antibody, V domains shown)
VH: QVQLVESGGGVVQPGRSLRLSCAASGFTFSSYGMHWVRQAPGKGLEWVAFISYDGINKYYADSVKGRFTISRDNSKDTLYLQMNSLRAEDTAVYYCAKVIPRIRGSGDKAGIKDYYYYGMDVWGQGTTVTVSS
VL: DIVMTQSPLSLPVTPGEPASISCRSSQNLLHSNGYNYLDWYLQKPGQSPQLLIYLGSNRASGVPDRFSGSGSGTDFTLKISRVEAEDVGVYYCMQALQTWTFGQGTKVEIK
notes: Human monoclonal IgG from a UC patient, expressed in CHO cells; also called monoclonal autoantibody derived from an ulcerative colitis patient; anti-integrin αvβ6 antibody (UC antibody 1)
Turning to B1, the affinity in experiment [1], expressed as Kd, was 4.54 nM. In experiment [2], the “IC50 (read off the curve)” value was about 0.2 µg/mL. Further, the binding result in experiment [3], in experiment [4], in experiment [5] and in experiment [6] was “no binding (tested: 25 µg/mL)” throughout.
